What was measured:
[1] = target: T1, human CD21 on Raji B cells or primary B cells (human, UniProt P20023 21-1033); assay: flow cytometry, competition with biotinylated human C3d on Raji B cells
T1 construct: whole, on cells; also called cell-surface human CD21; Raji cells
T1 sequence (looked up): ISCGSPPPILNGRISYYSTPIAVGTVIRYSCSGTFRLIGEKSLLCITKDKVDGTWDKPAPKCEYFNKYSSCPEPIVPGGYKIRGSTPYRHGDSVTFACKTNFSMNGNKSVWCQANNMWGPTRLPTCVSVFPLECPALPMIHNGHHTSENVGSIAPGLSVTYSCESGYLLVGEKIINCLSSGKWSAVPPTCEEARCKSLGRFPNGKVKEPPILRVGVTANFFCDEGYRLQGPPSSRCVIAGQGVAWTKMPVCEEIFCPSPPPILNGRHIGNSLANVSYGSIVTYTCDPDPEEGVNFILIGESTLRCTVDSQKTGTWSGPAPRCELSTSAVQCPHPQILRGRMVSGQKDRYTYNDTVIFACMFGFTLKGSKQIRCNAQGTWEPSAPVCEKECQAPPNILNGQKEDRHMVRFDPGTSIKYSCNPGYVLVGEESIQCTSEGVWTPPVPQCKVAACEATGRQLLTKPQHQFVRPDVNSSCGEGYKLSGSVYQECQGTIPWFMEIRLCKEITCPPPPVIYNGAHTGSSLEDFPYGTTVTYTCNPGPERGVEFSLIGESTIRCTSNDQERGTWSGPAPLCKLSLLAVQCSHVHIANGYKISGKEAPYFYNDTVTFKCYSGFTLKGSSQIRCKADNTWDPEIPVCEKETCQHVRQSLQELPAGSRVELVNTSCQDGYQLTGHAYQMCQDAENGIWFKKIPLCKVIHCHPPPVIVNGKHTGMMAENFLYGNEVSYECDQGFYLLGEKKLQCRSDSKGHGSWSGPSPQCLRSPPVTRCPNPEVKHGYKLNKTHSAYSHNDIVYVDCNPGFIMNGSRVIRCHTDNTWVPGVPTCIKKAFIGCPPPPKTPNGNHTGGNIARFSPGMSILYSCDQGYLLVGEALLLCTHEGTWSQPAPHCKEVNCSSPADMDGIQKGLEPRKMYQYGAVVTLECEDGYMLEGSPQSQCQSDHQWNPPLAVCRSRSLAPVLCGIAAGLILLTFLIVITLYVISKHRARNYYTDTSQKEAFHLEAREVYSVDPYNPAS
Experimental: (§1) To measure neutralization of C3d binding to cell-surface CD21 by flow cytometry, human Raji cells and CHO-cyno CD21 cells were used. Cells were dissociated with cell dissociation buffer (Sigma) and blocked on ice with PBS+3% bovine serum albumin (BSA)+human Fc blocker. In a 96-well plate, […] were incubated for 0.5 hr on ice with 3-fold serially diluted Ab15 (starting from 100 nM), then with 4.5 ug/ml biotinylated human C3d. SA-BV451 conjugate (BD Bioscience, cat. #563529) was then added at 0.5 ug/ml for 1 hr on ice. Cells were washed again with cold PBS, resuspended in PBS and analyzed for human C3d binding on a BD Fortessa™.

[2] = target: T1, human CD21 on Raji B cells or primary B …; assay: Raji B cell binding, flow cytometry
Experimental: Ab15 binding to cell-surface human and cyno CD21 was determined using human Raji B cells (ATCC, Manassas, VA) and CHO cells over expressing cyno CD21. Cells expressing cyno CD21 were generated by transfecting CHO cells with a mammalian expression construct encoding full-length cyno CD21. Stable cell clones were selected on hygromycin-B, and their expression of cyno CD21 confirmed by flow cytometry.
For the Ab15 binding experiment, cells were dissociated with cell dissociation buffer (Sigma) and blocked on ice with PBS+3% bovine serum (BS)+human Fc blocker. Cells were stained on ice for 1 hr with 3-fold serially diluted Ab15 (starting from 50 nM), then washed with cold PBS. Secondary antibody (anti-human IgG-PE, 1:500 dilution, Invitrogen, cat. #H10104) was added on ice for 1 hr. Cells were washed with and resuspended in PBS, and analyzed for Ab15 binding on a BD Fortessa instrument.

cyno CD21 on CHO cells = target: T2, cyno CD21 on CHO cells (cynomolgus monkey, UniProt A0A2K5URG6 21-1034); assay: flow cytometry, competition with biotinylated human C3d on CHO-cynoCD21 cells
T2 construct: whole, on cells; also called CHO-cyno CD21 cells; CHO-cynoCD21
T2 sequence: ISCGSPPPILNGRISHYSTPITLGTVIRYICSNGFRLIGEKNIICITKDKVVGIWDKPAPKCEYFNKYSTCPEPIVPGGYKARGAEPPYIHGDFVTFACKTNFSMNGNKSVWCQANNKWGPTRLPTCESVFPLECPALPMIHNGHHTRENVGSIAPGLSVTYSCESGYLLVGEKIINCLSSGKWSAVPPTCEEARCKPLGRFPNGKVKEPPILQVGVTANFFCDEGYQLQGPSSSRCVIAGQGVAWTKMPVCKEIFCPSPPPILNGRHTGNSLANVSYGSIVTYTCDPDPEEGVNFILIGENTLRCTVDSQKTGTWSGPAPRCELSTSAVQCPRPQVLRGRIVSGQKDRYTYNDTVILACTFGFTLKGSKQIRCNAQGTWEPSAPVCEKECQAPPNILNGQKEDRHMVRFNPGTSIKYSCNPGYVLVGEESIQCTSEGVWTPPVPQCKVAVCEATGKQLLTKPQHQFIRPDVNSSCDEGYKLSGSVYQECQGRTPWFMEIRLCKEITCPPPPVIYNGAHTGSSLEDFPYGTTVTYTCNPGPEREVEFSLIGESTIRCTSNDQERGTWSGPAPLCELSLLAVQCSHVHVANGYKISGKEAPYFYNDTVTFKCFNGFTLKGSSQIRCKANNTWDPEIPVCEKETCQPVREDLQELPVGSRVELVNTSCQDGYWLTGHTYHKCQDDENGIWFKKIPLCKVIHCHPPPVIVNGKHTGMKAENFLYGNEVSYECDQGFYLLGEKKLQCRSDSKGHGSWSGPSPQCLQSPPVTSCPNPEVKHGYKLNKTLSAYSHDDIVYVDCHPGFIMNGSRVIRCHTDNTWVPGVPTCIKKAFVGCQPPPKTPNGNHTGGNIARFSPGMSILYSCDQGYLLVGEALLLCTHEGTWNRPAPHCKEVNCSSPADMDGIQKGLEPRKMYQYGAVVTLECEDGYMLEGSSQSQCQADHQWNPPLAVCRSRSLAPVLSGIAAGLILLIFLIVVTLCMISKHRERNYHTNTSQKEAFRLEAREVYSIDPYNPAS
Experimental: as §1

[3] = target: cyno CD21 protein (cynomolgus monkey); assay: SPR (Biacore)

IC50 [1]: 1.17 nM
EC50 [2]: 1.38 nM
IC50 (cyno CD21 on CHO cells): 0.24 nM
Kd [3]: 5.77 nM
B1: Ab15 (antibody, human IgG1, kappa, V domains shown)
VH: QVQLVQSGAEVKKPGSSVKVSCKASGGTFSSYAISWVRQAPGQGLEWMGRIIPILGIANYAQKFQGRVTITADKSTSTAYMELSSLRSEDTAVYYCAREDDSSGYYQDWGQGTLVTVSS
VL: EIVMTQSPATLSLSPGESATLSCRAGQSINSHLAWYQQKPGQSPSLLIYDASTRATGVPARFSGSGFGTEFTLTISSLQSEDFAVYFCQQYEYWYTFGQGTKLEIKR
notes: Tb-labeled in the HTRF assay; also called 36C01; SC38-36C01 (IgG1 version)

Reference: patent US20240376225A1 (CHILDREN S MEDICAL CENTER, published 2024)
